The source of these data is the supplement of paper PMC10567573.

First the molecules themselves.
B1: CPXM2 (parent)
chain: TASTKNCMVGYDMGATRCDFTLSK
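Further: lentivirally expressed fusions sorted by FACS into six bins by GFP to DsRed ratio, PSI derived from sequencing read proportions per bin multiplied by bin number.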

In this data set the parent is B1. The data set is described as follows: protein stability index of a GFP-peptide fusion (GPS, HEK-293T) (PSI 1-6); higher = more stable. Conditions: c terminus: a fixed tail appended.
In the case of TASTKNCMVGYDDGATRCDFTLSK [M13D], the protein stability index was 3.76.
TASTKNCMVGYDTGATRCDFTLSK [M13T]: the protein stability index is 2.99.
On to TASTKNCMVGYDCGATRCDFTLSK [M13C], for which the protein stability index was determined as 2.08.
For TASTKNCMVGYDLGATRCDFTLSK [M13L], the protein stability index was 2.58.
Consider TASTKNCMVGYDGGATRCDFTLSK [M13G], for which the protein stability index came out at 2.99.
On to TASTKNCMVGYDRGATRCDFTLSK [M13R], for which the protein stability index stood at 2.5.
In the case of TASTKNCMVGYDWGATRCDFTLSK [M13W], the protein stability index is 2.02.
For TASTKNCMVGYDAGATRCDFTLSK [M13A], the protein stability index turned out to be 2.74.
TASTKNCMVGTDMGATRCDFTLSK [Y11T]: the protein stability index amounted to 2.85.
On to TASTKNCMVGEDMGATRCDFTLSK [Y11E], for which the protein stability index worked out at 3.49.
To TASTKNCMVGHDMGATRCDFTLSK [Y11H] belongs 3.32.
As for TASTKNCMVGVDMGATRCDFTLSK [Y11V], the protein stability index is 2.33.
With TASTKNCMVGGDMGATRCDFTLSK [Y11G], the protein stability index was 3.49.
TASTKSCMVGYDMGATRCDFTLSK [N6S]: the protein stability index stood at 2.66.
For the variant TASTKYCMVGYDMGATRCDFTLSK [N6Y], the protein stability index turned out to be 1.68.
Consider TASTKCCMVGYDMGATRCDFTLSK [N6C], for which the protein stability index was found to be 1.62.
With TASTKLCMVGYDMGATRCDFTLSK [N6L], the protein stability index is 1.83.
Regarding TASTKQCMVGYDMGATRCDFTLSK [N6Q], the protein stability index turned out to be 2.72.
As for TASTKMCMVGYDMGATRCDFTLSK [N6M], the figure is 2.34; as for TASTKICMVGYDMGATRCDFTLSK [N6I], 1.89; as for TASTKNCMVGYDMGATFCDFTLSK [R17F], 2.81.
In the case of TASTKNCMVGYDMGATNCDFTLSK [R17N], the protein stability index amounted to 3.32.
In the case of TASTKNCMVGYDMGATLCDFTLSK [R17L], the protein stability index is 3.53.
Regarding TASTKNCMVGYDMGATHCDFTLSK [R17H], the protein stability index stood at 2.72.
As to TASTKNCMVGYGMGATRCDFTLSK [D12G], the protein stability index came to 1.89.
Consider TASTKNCMVGYYMGATRCDFTLSK [D12Y], for which the protein stability index amounted to 1.69.
Turning to TASTKNCMVGYEMGATRCDFTLSK [D12E], the protein stability index is 2.02.
For TASTKNCMVGYLMGATRCDFTLSK [D12L], the protein stability index was determined as 1.21.
Regarding TASTKNCMVGYMMGATRCDFTLSK [D12M], the protein stability index was 1.46.
TQSTKNCMVGYDMGATRCDFTLSK [A2Q]: the protein stability index is 2.94.
Turning to TYSTKNCMVGYDMGATRCDFTLSK [A2Y], the protein stability index was 2.31.
For TPSTKNCMVGYDMGATRCDFTLSK [A2P], the protein stability index is 3.08.
On to TISTKNCMVGYDMGATRCDFTLSK [A2I], for which the protein stability index was found to be 1.8.
With TKSTKNCMVGYDMGATRCDFTLSK [A2K], the protein stability index is 2.04.
TVSTKNCMVGYDMGATRCDFTLSK [A2V]: the protein stability index was found to be 2.21.
On to TDSTKNCMVGYDMGATRCDFTLSK [A2D], for which the protein stability index is 3.75.
On to TASTKNCMVGYDMGATRCDQTLSK [F20Q], for which the protein stability index came to 3.05.
As for TASTKNCMVGYDMGATRCDCTLSK [F20C], the protein stability index was 2.52.
To TASTKNCMVGYDMGATRCDGTLSK [F20G] belongs 3.5; to TASTKNCMVGYDMGATRCDLTLSK [F20L], 2.42.
Consider TASTKNCMVGYDMGATRCDKTLSK [F20K], for which the protein stability index was found to be 3.67.
With TASTKNCMVGYDMGATRCDDTLSK [F20D], the protein stability index worked out at 3.85.
As for TASTKNCMVGYDMGATRCDYTLSK [F20Y], the figure is 2.13.
For TASTKNCMVGYDMGATRCDITLSK [F20I], the protein stability index worked out at 2.69.
For the variant TASTKNCMVGYDMGATRCDNTLSK [F20N], the protein stability index was 2.98.
TASTKNCMVGYDMGATRCDFTYSK [L22Y]: the protein stability index came out at 2.26.
Turning to TASTKNCMVGYDMGATRCDFTQSK [L22Q], the protein stability index worked out at 2.96.
In the case of TASTKNCMVGYDMGATRCDFTPSK [L22P], the protein stability index is 2.48.
In the case of TASTKNCMVGYDMGATRCDFTSSK [L22S], the protein stability index worked out at 2.41.
Turning to TASTKNCMVGYDMGATRCIFTLSK [D19I], the protein stability index stood at 1.94.
For the variant TASTKNCMVGYDMGATRCTFTLSK [D19T], the protein stability index came to 2.36.
As for TASTKNCMVGYDMGATRCQFTLSK [D19Q], the figure is 1.84; as for TASTKNCMVGYDMGATRCMFTLSK [D19M], 1.82; as for TASTKNCMVGYDMGTTRCDFTLSK [A15T], 2.37.
As for TASTKNCMVGYDMGDTRCDFTLSK [A15D], the figure is 2.78; as for TASTKNCMVGYDMGFTRCDFTLSK [A15F], 2.51; as for TASTKNCMVGYDMGKTRCDFTLSK [A15K], 2.84.
Turning to TASTKNCMVGYDMGRTRCDFTLSK [A15R], the protein stability index came to 1.89.
Take TASTKNCMVGYDMGMTRCDFTLSK [A15M]: the protein stability index came out at 2.07.
TADTKNCMVGYDMGATRCDFTLSK [S3D]: the protein stability index came to 3.57.
On to TAHTKNCMVGYDMGATRCDFTLSK [S3H], for which the protein stability index came to 1.97.
To TAVTKNCMVGYDMGATRCDFTLSK [S3V] belongs 3.26; to TAKTKNCMVGYDMGATRCDFTLSK [S3K], 1.99; to TAGTKNCMVGYDMGATRCDFTLSK [S3G], 2.47.
On to TALTKNCMVGYDMGATRCDFTLSK [S3L], for which the protein stability index was 2.16.
On to TASIKNCMVGYDMGATRCDFTLSK [T4I], for which the protein stability index was found to be 2.25.
For the variant TASNKNCMVGYDMGATRCDFTLSK [T4N], the protein stability index was determined as 2.4.
In the case of TASYKNCMVGYDMGATRCDFTLSK [T4Y], the protein stability index was found to be 2.
For the variant TASSKNCMVGYDMGATRCDFTLSK [T4S], the protein stability index came to 1.93.
Turning to TASKKNCMVGYDMGATRCDFTLSK [T4K], the protein stability index was 2.01.
For TASWKNCMVGYDMGATRCDFTLSK [T4W], the protein stability index worked out at 1.82.
As for TASHKNCMVGYDMGATRCDFTLSK [T4H], the protein stability index was found to be 2.
Regarding TASRKNCMVGYDMGATRCDFTLSK [T4R], the protein stability index came to 1.91.
For TASFKNCMVGYDMGATRCDFTLSK [T4F], the protein stability index was determined as 1.92.
Regarding TASTKNCMVIYDMGATRCDFTLSK [G10I], the protein stability index was determined as 1.67.
TASTKNCMVSYDMGATRCDFTLSK [G10S]: the protein stability index is 2.75.
Turning to TASTKNCMVHYDMGATRCDFTLSK [G10H], the protein stability index came out at 1.74.
On to PASTKNCMVGYDMGATRCDFTLSK [T1P], for which the protein stability index was 2.1.
As for SASTKNCMVGYDMGATRCDFTLSK [T1S], the figure is 2.86; as for IASTKNCMVGYDMGATRCDFTLSK [T1I], 1.8.
As for TASTKNCMMGYDMGATRCDFTLSK [V9M], the figure is 2.42.
As for TASTKNCMNGYDMGATRCDFTLSK [V9N], the protein stability index is 2.81.
For the variant TASTKNCMQGYDMGATRCDFTLSK [V9Q], the protein stability index worked out at 3.5.
As for TASTKNCMSGYDMGATRCDFTLSK [V9S], the figure is 2.36; as for TASTKNCMCGYDMGATRCDFTLSK [V9C], 2.31.
As to TASTKNCSVGYDMGATRCDFTLSK [M8S], the protein stability index amounted to 2.48.
With TASTKNCHVGYDMGATRCDFTLSK [M8H], the protein stability index is 2.76.
For TASTKNCFVGYDMGATRCDFTLSK [M8F], the protein stability index turned out to be 2.73.
As for TASTKNCIVGYDMGATRCDFTLSK [M8I], the figure is 1.62; as for TASTKNCYVGYDMGATRCDFTLSK [M8Y], 2.22; as for TASTKNCMVGYDMGAYRCDFTLSK [T16Y], 2.17.
On to TASTKNCMVGYDMGAPRCDFTLSK [T16P], for which the protein stability index worked out at 2.62.
To TASTKNCMVGYDMGASRCDFTLSK [T16S] belongs 2.81; to TASTKNCMVGYDMGAGRCDFTLSK [T16G], 2.27.
